According to patent US20210238276A1 (INTEGRAL MOLECULAR, published 2021):

Legend:
Experiment in all cases: flow cytometry, alanine-scan library in HEK-293T, with cytochalasin B
hsGLUT4 G504A = molecular target: T1, hsGLUT4 G504A (human, UniProt P14672 1-509)
T1 sequence: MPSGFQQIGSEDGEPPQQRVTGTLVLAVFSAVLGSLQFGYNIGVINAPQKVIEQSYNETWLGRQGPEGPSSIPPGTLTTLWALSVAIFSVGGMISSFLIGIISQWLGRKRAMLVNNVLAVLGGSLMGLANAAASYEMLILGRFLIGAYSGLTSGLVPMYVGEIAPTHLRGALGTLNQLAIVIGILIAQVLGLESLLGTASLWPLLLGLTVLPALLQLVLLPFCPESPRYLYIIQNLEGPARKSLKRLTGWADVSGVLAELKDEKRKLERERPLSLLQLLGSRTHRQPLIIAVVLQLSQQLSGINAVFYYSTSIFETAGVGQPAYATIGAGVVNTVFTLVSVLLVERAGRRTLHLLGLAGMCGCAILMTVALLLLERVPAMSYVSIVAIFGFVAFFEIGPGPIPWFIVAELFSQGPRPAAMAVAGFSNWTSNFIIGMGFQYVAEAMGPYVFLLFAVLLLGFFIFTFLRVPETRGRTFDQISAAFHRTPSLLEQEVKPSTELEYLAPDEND
Outline: (§1)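 HEK-293T cells expressing individual GLUT4 alanine mutants were stained 48 h post-transfection with anti-GLUT4 scFv MAbs (2 μg/ml), then biotinylated secondary and streptavidin-PerCP, and read by high-throughput flow cytometry. Where used, cytochalasin B (10 uM final) was given for 30 min before and during primary antibody staining.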

hsGLUT4 R169A = molecular target: T2, hsGLUT4 R169A (human, UniProt P14672 1-509)
T2 sequence: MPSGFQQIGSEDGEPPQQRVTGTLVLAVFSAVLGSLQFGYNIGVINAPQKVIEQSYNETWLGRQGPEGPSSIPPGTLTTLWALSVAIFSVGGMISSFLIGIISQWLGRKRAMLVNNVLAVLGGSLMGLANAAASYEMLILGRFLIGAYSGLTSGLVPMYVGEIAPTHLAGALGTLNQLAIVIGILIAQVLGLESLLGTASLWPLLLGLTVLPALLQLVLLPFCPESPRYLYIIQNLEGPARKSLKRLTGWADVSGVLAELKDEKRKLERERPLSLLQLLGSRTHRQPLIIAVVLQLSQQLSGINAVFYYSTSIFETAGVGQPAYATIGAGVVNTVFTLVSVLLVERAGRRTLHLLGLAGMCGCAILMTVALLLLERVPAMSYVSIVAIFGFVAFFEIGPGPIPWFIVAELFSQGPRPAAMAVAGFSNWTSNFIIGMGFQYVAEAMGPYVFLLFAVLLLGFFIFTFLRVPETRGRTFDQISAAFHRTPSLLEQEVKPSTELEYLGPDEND
Outline: as §1

hsGLUT4 Y502A = molecular target: T3, hsGLUT4 Y502A (human, UniProt P14672 1-509)
T3 sequence: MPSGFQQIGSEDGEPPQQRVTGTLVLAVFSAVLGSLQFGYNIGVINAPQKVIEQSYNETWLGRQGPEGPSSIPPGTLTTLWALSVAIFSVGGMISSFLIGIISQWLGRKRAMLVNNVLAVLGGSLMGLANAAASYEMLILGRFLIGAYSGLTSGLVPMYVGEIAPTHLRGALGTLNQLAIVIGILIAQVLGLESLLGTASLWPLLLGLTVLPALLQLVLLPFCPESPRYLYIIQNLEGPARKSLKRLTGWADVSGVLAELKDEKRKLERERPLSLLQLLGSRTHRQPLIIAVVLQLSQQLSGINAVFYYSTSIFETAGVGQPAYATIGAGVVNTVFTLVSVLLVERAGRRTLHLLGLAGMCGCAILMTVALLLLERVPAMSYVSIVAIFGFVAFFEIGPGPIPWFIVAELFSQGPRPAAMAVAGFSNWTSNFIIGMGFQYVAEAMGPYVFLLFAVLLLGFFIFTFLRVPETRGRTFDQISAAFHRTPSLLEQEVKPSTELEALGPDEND
Outline: as §1

hsGLUT4 D506A = molecular target: T4, hsGLUT4 D506A (human, UniProt P14672 1-509)
T4 sequence: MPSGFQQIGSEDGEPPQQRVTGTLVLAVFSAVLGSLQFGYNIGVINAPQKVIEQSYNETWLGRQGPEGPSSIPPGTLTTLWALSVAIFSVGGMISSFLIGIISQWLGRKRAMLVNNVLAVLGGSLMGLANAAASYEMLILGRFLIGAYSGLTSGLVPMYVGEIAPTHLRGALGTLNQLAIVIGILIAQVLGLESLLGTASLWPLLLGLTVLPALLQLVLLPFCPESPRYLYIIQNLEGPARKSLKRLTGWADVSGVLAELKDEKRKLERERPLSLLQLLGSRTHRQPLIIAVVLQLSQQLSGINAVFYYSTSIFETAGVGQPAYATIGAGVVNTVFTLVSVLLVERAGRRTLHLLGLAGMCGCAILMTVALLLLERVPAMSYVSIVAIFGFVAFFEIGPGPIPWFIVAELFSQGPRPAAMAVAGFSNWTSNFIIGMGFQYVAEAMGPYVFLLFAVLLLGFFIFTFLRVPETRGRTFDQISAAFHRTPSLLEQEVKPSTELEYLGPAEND
Outline: as §1

- % of binding to wild type GLUT4 (hsGLUT4 G504A): 71%
- % of binding to wild type GLUT4 (hsGLUT4 R169A): 77%
- % of binding to wild type GLUT4 (hsGLUT4 Y502A): 94%
- % of binding to wild type GLUT4 (hsGLUT4 D506A): 60%
B1: AB102 (Fc fusion)
scFv: ALTQPSSVSANLGGTVKITCSGGGSYGYGWYQQKSPGSAPVTVIYSNDQRPSDIPSRFSGSKSGSTATLTITGVRAEDEAIYYCGSTDSDYVGIFGAGTTLTVLGQSSRSSGGGGSSGGGGSAVTLDESGGGLQTPGGTLSLVCKASGFDFSSYATIWVRQAPGKGLEWVAGISGTGTGSSTGYAPAVKGRATISRDNGQSTVRLQLNNLRAEDTGSYFCAKSTGYGDSWIYPDSIDAWGHGTEVIVSS
notes: also called MAb AB102; not shown: Fc fragment of human IgG1, cloned in frame with the scFv
